Test results: US20230106715A1 (BIOSION, published 2023)

Legend:
[1] = target: T1, human Siglec15-mouse Fc protein (human); assay: cell based blocking FACS: human Siglec15-mouse Fc in solution, blocked ligand human LRRC4C on LRRC4C-3F12-1B9 cells
T1 construct: In house made
T1 chain: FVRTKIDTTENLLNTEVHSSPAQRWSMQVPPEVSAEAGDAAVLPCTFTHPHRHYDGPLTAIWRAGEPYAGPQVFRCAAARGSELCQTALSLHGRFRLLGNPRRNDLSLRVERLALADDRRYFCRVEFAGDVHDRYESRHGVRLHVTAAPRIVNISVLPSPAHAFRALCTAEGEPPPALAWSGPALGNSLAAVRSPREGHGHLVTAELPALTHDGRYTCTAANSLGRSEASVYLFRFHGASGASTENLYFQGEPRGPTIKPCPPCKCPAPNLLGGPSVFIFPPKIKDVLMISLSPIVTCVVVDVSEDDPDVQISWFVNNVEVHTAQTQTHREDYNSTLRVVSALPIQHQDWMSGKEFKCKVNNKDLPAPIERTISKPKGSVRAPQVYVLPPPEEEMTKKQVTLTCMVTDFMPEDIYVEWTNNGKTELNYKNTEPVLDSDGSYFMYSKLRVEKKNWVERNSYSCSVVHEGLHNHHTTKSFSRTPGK
Procedure: The activities of the anti-Siglec15 antibodies to block binding of Siglec15 protein to cell surface LRRC4C were evaluated by Flow Cytometry (FACS), using in house made LRRC4C-3F12-1B9 cells. Briefly, HEK-293 cells (ATCC #CRL-1573) were transfected with pCMV-T-P plasmid constructs with the nucleotide sequence encoding human LRRC4C (amino acid residues Met1-Ile640 of uniprot #Q9HCJ2) inserted between EcoRI and XbaI, following the instruction of lipofectamine 3000 transfection reagent (Thermo Fisher). A stable cell named LRRC4C-3F12-1B9 was chosen for subsequent cell based ligand-blocking assay.
Briefly, the anti-Siglec15 antibodies of the disclosure or controls were diluted with human Siglec15-mouse Fc protein (prepared in-house with SEQ ID NO: 26, 8 μg/ml […] in FACS buffer), starting at 66.67 nM with a 5-fold serial dilution, and incubated at room temperature for 40 minutes. Then, LRRC4C-3F12-1B9 cells were harvested from cell culture flasks, washed twice and re-suspended in PBS containing 2% v/v Fetal Bovine Serum (FACS buffer). Then, 1×10⁵ cells per well in 96 well-plates were incubated in 100 μL of the antibody/Siglec15-mouse Fc mixtures for 40 minutes at 4° C. […] Cells were washed twice and re-suspended in FACS buffer. Fluorescence was measured using a Becton Dickinson FACS Canto II-HTS equipment. Data was analyzed using Graphpad Prism software and IC₅₀ values were reported.

[2] = target: T2, human Siglec15 on human-siglec15-2D3-1E1 cells (human, UniProt Q6ZMC9 20-328); assay: cell based binding FACS on human-siglec15-2D3-1E1 cells
T2 construct: whole, on cells; Transfected HEK-293 cells; also called cell surface human Siglec15
T2 sequence (looked up): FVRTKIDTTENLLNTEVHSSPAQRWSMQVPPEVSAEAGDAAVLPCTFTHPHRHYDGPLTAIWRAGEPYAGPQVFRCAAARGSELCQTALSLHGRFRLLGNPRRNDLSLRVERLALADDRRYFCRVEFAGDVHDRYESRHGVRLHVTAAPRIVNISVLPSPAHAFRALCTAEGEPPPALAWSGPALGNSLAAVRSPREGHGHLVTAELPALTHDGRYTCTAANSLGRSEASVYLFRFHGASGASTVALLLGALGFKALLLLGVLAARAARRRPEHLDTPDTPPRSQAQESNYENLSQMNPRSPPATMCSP
Procedure: The binding activities of the anti-Siglec15 antibodies to cell surface Siglec15 were tested by flow cytometry (FACS), using in-house prepared human-siglec15-2D3-1E1 cells expressing human Siglec15 (amino acid residues Met1-Pro328 of uniprot #Q6ZMC9) on cell membranes. The human-siglec15-2D3-1E1 cells were prepared by transfecting HEK-293 cells (ATCC #CRL-1573) with pCMV-T-P plasmids inserted with human Siglec15 coding sequence between EcoRI and XbaI sites, following the instruction of lipofectamine 3000 transfection reagent (Thermo Fisher). The human-siglec15-2D3-1E1 cells were harvested from cell culture flasks, washed twice and re-suspended in phosphate buffered saline (PBS) containing 2% v/v Fetal Bovine Serum (FACS buffer). 2×10⁵ cells per well in 96 well-plates were incubated in 100 μL serially diluted anti-Siglec15 antibodies or controls (starting at 66.67 nM, 5-fold serial dilution) in FACS buffer for 40 minutes on ice. […] Following a 40-minute incubation at 4° C. in dark, cells were washed three times and re-suspended in FACS buffer. Fluorescence was measured using a Becton Dickinson FACS Canto II-HTS equipment. Data was analyzed using Graphpad Prism software and EC₅₀ values were reported.

[3] = target: T3, human Siglec15-Fc protein (human); assay: competitive ELISA: coated human Siglec15-Fc, blocked ligand biotin-labeled human LRRC4C-Fc
T3 construct: In house made; also called recombinant human Siglec15 protein with human IgG1 Fc at the C-terminus
T3 sequence (chain, as listed by the source limits assumed): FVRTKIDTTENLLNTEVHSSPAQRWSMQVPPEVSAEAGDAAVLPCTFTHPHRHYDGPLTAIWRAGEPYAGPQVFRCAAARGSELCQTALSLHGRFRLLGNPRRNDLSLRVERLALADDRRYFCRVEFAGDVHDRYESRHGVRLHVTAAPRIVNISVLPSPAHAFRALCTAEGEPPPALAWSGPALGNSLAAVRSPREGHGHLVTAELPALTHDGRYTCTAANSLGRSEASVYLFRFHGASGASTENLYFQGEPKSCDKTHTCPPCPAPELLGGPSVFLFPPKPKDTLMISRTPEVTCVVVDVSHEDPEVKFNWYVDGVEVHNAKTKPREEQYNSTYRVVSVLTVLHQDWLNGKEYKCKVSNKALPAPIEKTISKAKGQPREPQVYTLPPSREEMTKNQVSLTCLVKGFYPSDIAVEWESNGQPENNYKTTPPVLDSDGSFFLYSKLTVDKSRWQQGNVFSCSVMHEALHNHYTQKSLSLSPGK
Procedure: Serially diluted anti-Siglec15 antibodies or the controls (starting at 66.67 nM with a 5-fold serial dilution) in PBST with 2.5% w/v non-fatty milk were added to the Siglec15-Fc bound plates, 100 μl per well, and incubated with the human Siglec15-Fc protein at 37° C. for 40 minutes. Plates were washed 4 times again using wash buffer, then added and incubated for 40 minutes at 37° C. with 100 μl/well 290 ng/ml biotin-labeled human LRRC4C-Fc protein (prepared in-house with SEQ ID NO: 23). Plates were washed again using wash buffer. Thereafter, the plates were added with 100 μl/well streptavidin conjugated HRP (1:5000 dilution in PBST buffer, Jackson Immunoresearch, Cat #016-030-084) and incubated for 40 minutes at 37° C. Plates were washed again using wash buffer. Finally, TMB was added and the reaction was stopped using 1M H₂SO₄, and the absorbance of each well was read on a microplate reader using dual wavelength mode with 450 nm for TMB and 630 nm as the reference wavelength, then the OD (450-630) values were plotted against antibody concentration. Data was analyzed using Graphpad Prism software and IC₅₀ values were reported.

- IC50 [1]: 707 pM
- EC50 [2]: 19800 pM
- IC50 [3]: 792 pM
B1: anti-Siglec15 benchmark (ch5G12) (antibody, human IgG1, kappa, V domains shown)
VH: QVQLQQPGAELVKPGASVKMSCKASGYTFTSYWITWVIQRPGQGLEWIGDIYCGSDTMHYNEKFKNKATLTVDTSSSTAYMQLSSLTSEDSAVYYCARWWDYGSSYDYFDYWGQGTTLTVSS
VL: DIKMTQSPSSMYASLGERVTITCKASQDINSYLSWFQQKPGKSPKTLIYRANRLVDGVPSRFSGSGSGQDYSLTISSLEYEDMGIYYCLQYDEFPYTFGGGTKLEIKR
notes: ch5G12 (US 20190202912A1); also called BM; Siglec15-ch5G9
